From article PMC9482650, “Quantitative fragmentomics allow affinity mapping of interactomes” (Nature Communications, 2022)

Legend:
Assay in all cases: holdup assay
Design in all cases: key: below the threshold = too weak to quantify, mostly under pKd 3.1 to 4
APBA2_2, Q99767 = biological target: T1, APBA2_2, Q99767
T1 sequence (Q99767 654-744, limits assumed, looked up): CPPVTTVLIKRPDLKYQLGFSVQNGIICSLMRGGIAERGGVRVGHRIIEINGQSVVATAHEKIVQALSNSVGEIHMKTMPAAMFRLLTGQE

ARHGAP21, Q5T5U3 = biological target: T2, ARHGAP21, Q5T5U3
T2 sequence (Q5T5U3 45-169, limits assumed, looked up): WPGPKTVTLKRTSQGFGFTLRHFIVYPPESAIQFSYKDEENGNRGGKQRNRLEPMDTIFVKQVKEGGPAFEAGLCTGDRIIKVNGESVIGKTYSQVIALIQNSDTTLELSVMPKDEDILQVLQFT

ARHGEF12, Q9NZN5-2 = biological target: ARHGEF12, Q9NZN5-2
DFNB31_3, Q9P202 = biological target: T3, DFNB31_3, Q9P202
T3 sequence (Q9P202 811-907, limits assumed, looked up): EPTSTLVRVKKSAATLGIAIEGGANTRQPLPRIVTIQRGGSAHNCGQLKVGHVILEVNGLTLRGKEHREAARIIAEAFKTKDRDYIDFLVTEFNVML

DLG1_1, Q12959 = biological target: DLG1_1, Q12959
DLG1_2, Q12959 = biological target: DLG1_2, Q12959
DLG2_2, Q15700 = biological target: DLG2_2, Q15700
DLG5_1, Q8TDM6 = biological target: DLG5_1, Q8TDM6
GIPC2, Q8TF65 = biological target: GIPC2, Q8TF65
GRASP, Q7Z6J2 = biological target: GRASP, Q7Z6J2
GRID2IP_1, A4D2P6 = biological target: GRID2IP_1, A4D2P6
Inadl_10, Q8NI35 = biological target: Inadl_10, Q8NI35
Inadl_2, Q8NI35 = biological target: Inadl_2, Q8NI35
Inadl_6, Q8NI35 = biological target: Inadl_6, Q8NI35
Inadl_8, Q8NI35 = biological target: Inadl_8, Q8NI35
LDB3, O75112 = biological target: LDB3, O75112
LIN7B, Q9HAP6 = biological target: T4, LIN7B, Q9HAP6
T4 sequence (Q9HAP6 88-185, limits assumed, looked up): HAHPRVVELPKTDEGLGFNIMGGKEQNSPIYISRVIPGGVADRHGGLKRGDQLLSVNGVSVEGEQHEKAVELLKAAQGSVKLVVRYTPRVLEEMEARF

MAGI2_2, Q86UL8 = biological target: MAGI2_2, Q86UL8
MPP2, Q14168 = biological target: T5, MPP2, Q14168
T5 sequence (Q14168 180-250, limits assumed, looked up): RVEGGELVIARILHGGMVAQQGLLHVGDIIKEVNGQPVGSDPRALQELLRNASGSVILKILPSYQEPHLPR

NHERF3_1, Q5T2W1 = biological target: T6, NHERF3_1, Q5T2W1
T6 sequence (Q5T2W1 4-100, limits assumed, looked up): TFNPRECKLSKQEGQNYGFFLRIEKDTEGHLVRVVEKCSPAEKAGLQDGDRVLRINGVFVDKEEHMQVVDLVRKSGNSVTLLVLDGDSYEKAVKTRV

NHERF3_3, Q5T2W1 = biological target: T7, NHERF3_3, Q5T2W1
T7 sequence (Q5T2W1 238-333, limits assumed, looked up): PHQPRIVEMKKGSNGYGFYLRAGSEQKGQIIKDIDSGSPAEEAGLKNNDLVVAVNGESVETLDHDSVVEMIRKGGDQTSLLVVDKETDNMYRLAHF

NHERF4_1, Q86UT5-2 = biological target: NHERF4_1, Q86UT5-2
PDLIM1, O00151 = biological target: PDLIM1, O00151
PDZRN4_1, Q6ZMN7 = biological target: PDZRN4_1, Q6ZMN7
RADIL, Q96JH8 = biological target: T8, RADIL, Q96JH8
T8 sequence (Q96JH8 971-1071, limits assumed, looked up): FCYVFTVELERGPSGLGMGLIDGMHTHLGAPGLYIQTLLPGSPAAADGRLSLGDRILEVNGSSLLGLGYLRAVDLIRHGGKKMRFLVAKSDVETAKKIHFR

RHPN1, Q8TCX5 = biological target: T9, RHPN1, Q8TCX5
T9 sequence (Q8TCX5 508-602, limits assumed, looked up): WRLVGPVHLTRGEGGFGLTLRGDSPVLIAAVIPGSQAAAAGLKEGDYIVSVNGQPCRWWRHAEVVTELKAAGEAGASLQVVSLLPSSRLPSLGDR

TIAM2, Q8IVF5 = biological target: T10, TIAM2, Q8IVF5
T10 sequence (Q8IVF5 885-986, limits assumed, looked up): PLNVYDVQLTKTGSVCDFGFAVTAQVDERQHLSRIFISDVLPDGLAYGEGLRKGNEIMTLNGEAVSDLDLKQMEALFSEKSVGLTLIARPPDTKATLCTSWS

[1] = plain residues with an end cap or a label only (N-terminal biotin on a linker: ttds)
[2] = plain residues with an end cap or a label only (N-terminal biotin on a linker: ahx)

NHERF4_1, Q86UT5-2, sequence (Q86UT5 other isoform, or with tags, fused parts or gaps): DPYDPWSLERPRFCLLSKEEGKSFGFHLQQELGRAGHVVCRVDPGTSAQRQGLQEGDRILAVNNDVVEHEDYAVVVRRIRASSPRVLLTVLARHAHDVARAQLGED
Inadl_10, Q8NI35, sequence (Q8NI35 1673-1763): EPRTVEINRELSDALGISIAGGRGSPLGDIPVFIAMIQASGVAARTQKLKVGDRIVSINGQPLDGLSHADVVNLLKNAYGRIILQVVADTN
DLG2_2, Q15700, sequence (Q15700 189-283): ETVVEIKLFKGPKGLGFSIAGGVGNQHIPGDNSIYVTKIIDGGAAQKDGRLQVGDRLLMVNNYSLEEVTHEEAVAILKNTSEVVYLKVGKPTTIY
GRASP, Q7Z6J2, sequence (Q7Z6J2 96-193): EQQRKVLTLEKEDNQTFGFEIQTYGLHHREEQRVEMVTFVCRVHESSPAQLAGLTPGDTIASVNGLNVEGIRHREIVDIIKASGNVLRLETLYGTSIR
DLG5_1, Q8TDM6, sequence (Q8TDM6 617-713): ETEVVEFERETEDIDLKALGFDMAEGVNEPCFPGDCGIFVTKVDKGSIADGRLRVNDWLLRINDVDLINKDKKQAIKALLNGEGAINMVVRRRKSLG
LDB3, O75112, sequence (O75112 1-94): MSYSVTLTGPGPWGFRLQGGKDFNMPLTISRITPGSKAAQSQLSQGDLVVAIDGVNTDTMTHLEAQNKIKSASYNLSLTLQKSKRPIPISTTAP
PDLIM1, O00151, sequence (O00151 1-87): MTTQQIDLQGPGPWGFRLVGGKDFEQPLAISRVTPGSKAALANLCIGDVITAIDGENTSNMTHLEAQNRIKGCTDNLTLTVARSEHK
Inadl_8, Q8NI35, sequence (Q8NI35 1425-1530): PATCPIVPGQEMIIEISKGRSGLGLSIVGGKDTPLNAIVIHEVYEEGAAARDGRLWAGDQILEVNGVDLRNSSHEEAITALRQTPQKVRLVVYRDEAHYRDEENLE
PDZRN4_1, Q6ZMN7, sequence (Q6ZMN7 213-318): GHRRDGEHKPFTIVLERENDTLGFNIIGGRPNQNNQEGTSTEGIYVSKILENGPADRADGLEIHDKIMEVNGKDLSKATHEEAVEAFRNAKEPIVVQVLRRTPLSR
GRID2IP_1, A4D2P6, sequence (A4D2P6 1-87): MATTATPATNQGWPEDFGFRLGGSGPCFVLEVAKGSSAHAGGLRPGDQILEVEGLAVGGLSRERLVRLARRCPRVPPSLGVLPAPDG
Inadl_6, Q8NI35, sequence (Q8NI35 1058-1167): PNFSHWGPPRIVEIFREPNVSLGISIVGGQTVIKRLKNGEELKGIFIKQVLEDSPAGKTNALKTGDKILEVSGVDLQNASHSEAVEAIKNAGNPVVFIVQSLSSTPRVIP
Inadl_2, Q8NI35, sequence (Q8NI35 238-335): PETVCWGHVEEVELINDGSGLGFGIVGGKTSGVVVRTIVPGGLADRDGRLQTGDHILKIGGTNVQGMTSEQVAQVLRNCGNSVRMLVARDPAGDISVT
GIPC2, Q8TF65, sequence (Q8TF65 112-203): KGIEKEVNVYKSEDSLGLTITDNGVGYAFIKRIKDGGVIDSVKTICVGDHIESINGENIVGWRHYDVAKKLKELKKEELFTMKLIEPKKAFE
MAGI2_2, Q86UL8, sequence (Q86UL8 410-522): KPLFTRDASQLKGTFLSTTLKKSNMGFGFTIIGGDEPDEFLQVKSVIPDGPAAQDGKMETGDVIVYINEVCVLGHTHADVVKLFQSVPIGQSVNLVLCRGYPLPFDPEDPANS
ARHGEF12, Q9NZN5-2, sequence (Q9NZN5 other isoform, or with tags, fused parts or gaps): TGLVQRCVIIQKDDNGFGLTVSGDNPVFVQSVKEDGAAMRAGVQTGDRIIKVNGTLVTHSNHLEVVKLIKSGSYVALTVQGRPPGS

EVVHTPETSV [SLC16A3, O15427] was tested, and the pKd (APBA2_2, Q99767; [1]) was “below the threshold”, the pKd (ARHGAP21, Q5T5U3; [1]) was “below the threshold” and the pKd (ARHGEF12, Q9NZN5-2; [1]) was 3.89. The pKd (DFNB31_3, Q9P202; [1]) was “below the threshold”, the pKd (DLG1_1, Q12959; [1]) was 3.87 and the pKd (DLG1_2, Q12959; [1]) was 4.3. For the same binder, the pKd (DLG2_2, Q15700; [1]) was 3.98, the pKd (DLG5_1, Q8TDM6; [1]) was “below the threshold” and the pKd (GIPC2, Q8TF65; [1]) was “below the threshold”. The pKd (GRASP, Q7Z6J2; [1]) was “below the threshold”, the pKd (GRID2IP_1, A4D2P6; [1]) was “below the threshold” and the pKd (Inadl_10, Q8NI35; [1]) was “below the threshold”. For the same binder, the pKd (Inadl_2, Q8NI35; [1]) was “below the threshold”, the pKd (Inadl_6, Q8NI35; [1]) was “below the threshold” and the pKd (Inadl_8, Q8NI35; [1]) was “below the threshold”. The pKd (LDB3, O75112; [1]) was “below the threshold”, the pKd (LIN7B, Q9HAP6; [1]) was 3.61 and the pKd (MAGI2_2, Q86UL8; [1]) was “below the threshold”. For the same binder, the pKd (MPP2, Q14168; [1]) was “below the threshold”, the pKd (NHERF3_1, Q5T2W1; [1]) was “below the threshold” and the pKd (NHERF3_3, Q5T2W1; [1]) was “below the threshold”. The pKd (NHERF4_1, Q86UT5-2; [1]) was 4.19, the pKd (PDLIM1, O00151; [1]) was “below the threshold” and the pKd (PDZRN4_1, Q6ZMN7; [1]) was 4.5. For the same binder, the pKd (RADIL, Q96JH8; [1]) was “below the threshold”, the pKd (RHPN1, Q8TCX5; [1]) was 4.24 and the pKd (TIAM2, Q8IVF5; [1]) was “below the threshold”.

In the case of HNAFLSVTTV [PDZRN4, Q6ZMN7], the pKd (APBA2_2, Q99767; [2]) is reported as “below the threshold”, the pKd (ARHGAP21, Q5T5U3; [2]) is reported as 3.5 and the pKd (ARHGEF12, Q9NZN5-2; [2]) is reported as “below the threshold”. For the same binder, the pKd (DFNB31_3, Q9P202; [2]) was “below the threshold”, the pKd (DLG1_1, Q12959; [2]) was 3.54 and the pKd (DLG1_2, Q12959; [2]) was 3.52. For the same binder, the pKd (DLG2_2, Q15700; [2]) was “below the threshold”, the pKd (DLG5_1, Q8TDM6; [2]) was “below the threshold” and the pKd (GIPC2, Q8TF65; [2]) was “below the threshold”. For the same binder, the pKd (GRASP, Q7Z6J2; [2]) was 3.57, the pKd (GRID2IP_1, A4D2P6; [2]) was “below the threshold” and the pKd (Inadl_10, Q8NI35; [2]) was 3.57. The pKd (Inadl_2, Q8NI35; [2]) was “below the threshold”, the pKd (Inadl_6, Q8NI35; [2]) was “below the threshold” and the pKd (Inadl_8, Q8NI35; [2]) was 3.52. The pKd (LDB3, O75112; [2]) was 3.56, the pKd (LIN7B, Q9HAP6; [2]) was “below the threshold” and the pKd (MAGI2_2, Q86UL8; [2]) was 3.54. The pKd (MPP2, Q14168; [2]) was “below the threshold”, the pKd (NHERF3_1, Q5T2W1; [2]) was “below the threshold” and the pKd (NHERF3_3, Q5T2W1; [2]) was “below the threshold”. The pKd (NHERF4_1, Q86UT5-2; [2]) was 3.69, the pKd (PDLIM1, O00151; [2]) was “below the threshold” and the pKd (PDZRN4_1, Q6ZMN7; [2]) was 3.5. For the same binder, the pKd (RADIL, Q96JH8; [2]) was 3.61, the pKd (RHPN1, Q8TCX5; [2]) was “below the threshold” and the pKd (TIAM2, Q8IVF5; [2]) was “below the threshold”.

For RLPKIKETTV [FRMPD4, Q14CM0], the pKd (APBA2_2, Q99767; [1]) was “below the threshold”, the pKd (ARHGAP21, Q5T5U3; [1]) was “below the threshold” and the pKd (ARHGEF12, Q9NZN5-2; [1]) was 4.23. For the same binder, the pKd (DFNB31_3, Q9P202; [1]) was “below the threshold”, the pKd (DLG1_1, Q12959; [1]) was 5.12 and the pKd (DLG1_2, Q12959; [1]) was 6.06. For the same binder, the pKd (DLG2_2, Q15700; [1]) was 5.5, the pKd (DLG5_1, Q8TDM6; [1]) was “below the threshold” and the pKd (GIPC2, Q8TF65; [1]) was “below the threshold”. The pKd (GRASP, Q7Z6J2; [1]) was 3.47, the pKd (GRID2IP_1, A4D2P6; [1]) was “below the threshold” and the pKd (Inadl_10, Q8NI35; [1]) was “below the threshold”. For the same binder, the pKd (Inadl_2, Q8NI35; [1]) was “below the threshold”, the pKd (Inadl_6, Q8NI35; [1]) was “below the threshold” and the pKd (Inadl_8, Q8NI35; [1]) was 3.98. For the same binder, the pKd (LDB3, O75112; [1]) was “below the threshold”, the pKd (LIN7B, Q9HAP6; [1]) was 4.52 and the pKd (MAGI2_2, Q86UL8; [1]) was 4.73. The pKd (MPP2, Q14168; [1]) was “below the threshold”, the pKd (NHERF3_1, Q5T2W1; [1]) was “below the threshold” and the pKd (NHERF3_3, Q5T2W1; [1]) was “below the threshold”. The pKd (NHERF4_1, Q86UT5-2; [1]) was “below the threshold”, the pKd (PDLIM1, O00151; [1]) was “below the threshold” and the pKd (PDZRN4_1, Q6ZMN7; [1]) was 4.67. The pKd (RADIL, Q96JH8; [1]) was “below the threshold”, the pKd (RHPN1, Q8TCX5; [1]) was 4.19 and the pKd (TIAM2, Q8IVF5; [1]) was “below the threshold”.

In the case of GYDWGPATDL [TJP3, O95049], the pKd (APBA2_2, Q99767; [2]) is reported as “below the threshold”, the pKd (ARHGAP21, Q5T5U3; [2]) is reported as “below the threshold” and the pKd (ARHGEF12, Q9NZN5-2; [2]) is reported as 4.66. For the same binder, the pKd (DFNB31_3, Q9P202; [2]) was “below the threshold”, the pKd (DLG1_1, Q12959; [2]) was “below the threshold” and the pKd (DLG1_2, Q12959; [2]) was 3.61. For the same binder, the pKd (DLG2_2, Q15700; [2]) was “below the threshold”, the pKd (DLG5_1, Q8TDM6; [2]) was “below the threshold” and the pKd (GIPC2, Q8TF65; [2]) was 3.73. The pKd (GRASP, Q7Z6J2; [2]) was 4.14, the pKd (GRID2IP_1, A4D2P6; [2]) was “below the threshold” and the pKd (Inadl_10, Q8NI35; [2]) was 3.62. The pKd (Inadl_2, Q8NI35; [2]) was “below the threshold”, the pKd (Inadl_6, Q8NI35; [2]) was 4.8 and the pKd (Inadl_8, Q8NI35; [2]) was 3.49. The pKd (LDB3, O75112; [2]) was 3.97, the pKd (LIN7B, Q9HAP6; [2]) was “below the threshold” and the pKd (MAGI2_2, Q86UL8; [2]) was “below the threshold”. For the same binder, the pKd (MPP2, Q14168; [2]) was “below the threshold”, the pKd (NHERF3_1, Q5T2W1; [2]) was “below the threshold” and the pKd (NHERF3_3, Q5T2W1; [2]) was “below the threshold”. For the same binder, the pKd (NHERF4_1, Q86UT5-2; [2]) was 3.72, the pKd (PDLIM1, O00151; [2]) was 4.41 and the pKd (PDZRN4_1, Q6ZMN7; [2]) was “below the threshold”. For the same binder, the pKd (RADIL, Q96JH8; [2]) was “below the threshold”, the pKd (RHPN1, Q8TCX5; [2]) was 5.36 and the pKd (TIAM2, Q8IVF5; [2]) was “below the threshold”.
